{
  "source": "paper PMC7261888",
  "about": "“Crystal Structure of Geranylgeranyl Pyrophosphate Synthase (CrtE) Involved in Cyanobacterial Terpenoid Biosynthesis” (Frontiers in Plant Science, 2020)",
  "target": "the molecule itself",
  "assay": "SEC; HiLoad 16/60 Superdex 200 pg, 25 mM Tris-HCl pH 7.5, 500 mM NaCl, 4 °C, 1 mL/min; mass estimated from the elution volume",
  "data": [
    {"protein": "Synechococcus sp. PCC 7002 CrtE (geranylgeranyl pyrophosphate synthase) (enzyme, UniProt B1XJV9 1-302, looked up, CrtE (type II geranylgeranyl pyrophosphate synthase) of Synechococcus sp; PCC 7002, gene crtE, locus SYNPCC7002_A1085; amplified from genomic DNA with primers from the ATG to the stop codon; predicted 302 residues; Expressed from pHUE as an N-terminal His-tagged ubiquitin fusion and freed by deubiquitinase; also called Syn7002 CrtE; Syn7002 GGPPS; source: E. coli BL21(DE3), purified (Ni-NTA, …)) MVVADAHTQGFSLAQYLQEQKTIVETALDQSLVITEPVTIYEAMRYSLLAGGKRLRPILCLAACEMLGGTAAMAMNTACALEMIHTMSLIHDDLPAMDNDDLRRGKPTNHKVYGEDIAILAGDALLSYAFEYVARTPDVPAERLLQVIVRLGQAVGAEGLVGGQVVDLESEGKTDVAVETLNFIHTHKTGALLEVCVTAGAILAGAKPEEVQLLSRYAQNIGLAFQIVDDILDITATAEELGKTAGKDLEAQKVTYPSLWGIEKSQAEAQKLVAEAIASLEPYGEKANPLKALAEYIVNRKN", "values": [
      {"measurement": "stoichiometry N", "result": 2}
    ]}
  ]
}
